Values of other authors as cited in publication PMC8175380.

Tests used:
EED (Homo sapiens) = EED (Homo sapiens) (UniProt O75530); assay: ITC
MDM2 (Homo sapiens) = MDM2 (Homo sapiens) (UniProt Q00987); assay: SPR
Sequence of MDM2 (Homo sapiens) (Q00987 whole entry): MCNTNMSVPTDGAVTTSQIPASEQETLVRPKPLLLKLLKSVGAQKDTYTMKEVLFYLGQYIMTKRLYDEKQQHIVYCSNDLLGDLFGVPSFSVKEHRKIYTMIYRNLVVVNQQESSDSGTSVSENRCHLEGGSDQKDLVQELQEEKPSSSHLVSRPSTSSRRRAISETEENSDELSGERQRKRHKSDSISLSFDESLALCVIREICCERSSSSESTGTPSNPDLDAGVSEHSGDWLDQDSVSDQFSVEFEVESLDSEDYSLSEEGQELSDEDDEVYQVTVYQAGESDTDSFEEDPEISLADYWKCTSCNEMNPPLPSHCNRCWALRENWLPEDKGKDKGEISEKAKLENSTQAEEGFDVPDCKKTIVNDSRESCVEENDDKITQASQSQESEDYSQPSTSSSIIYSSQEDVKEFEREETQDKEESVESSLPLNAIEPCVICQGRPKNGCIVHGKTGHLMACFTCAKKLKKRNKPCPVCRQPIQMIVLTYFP

Sequence of EZH2 peptide aptamer (Q15910 whole entry): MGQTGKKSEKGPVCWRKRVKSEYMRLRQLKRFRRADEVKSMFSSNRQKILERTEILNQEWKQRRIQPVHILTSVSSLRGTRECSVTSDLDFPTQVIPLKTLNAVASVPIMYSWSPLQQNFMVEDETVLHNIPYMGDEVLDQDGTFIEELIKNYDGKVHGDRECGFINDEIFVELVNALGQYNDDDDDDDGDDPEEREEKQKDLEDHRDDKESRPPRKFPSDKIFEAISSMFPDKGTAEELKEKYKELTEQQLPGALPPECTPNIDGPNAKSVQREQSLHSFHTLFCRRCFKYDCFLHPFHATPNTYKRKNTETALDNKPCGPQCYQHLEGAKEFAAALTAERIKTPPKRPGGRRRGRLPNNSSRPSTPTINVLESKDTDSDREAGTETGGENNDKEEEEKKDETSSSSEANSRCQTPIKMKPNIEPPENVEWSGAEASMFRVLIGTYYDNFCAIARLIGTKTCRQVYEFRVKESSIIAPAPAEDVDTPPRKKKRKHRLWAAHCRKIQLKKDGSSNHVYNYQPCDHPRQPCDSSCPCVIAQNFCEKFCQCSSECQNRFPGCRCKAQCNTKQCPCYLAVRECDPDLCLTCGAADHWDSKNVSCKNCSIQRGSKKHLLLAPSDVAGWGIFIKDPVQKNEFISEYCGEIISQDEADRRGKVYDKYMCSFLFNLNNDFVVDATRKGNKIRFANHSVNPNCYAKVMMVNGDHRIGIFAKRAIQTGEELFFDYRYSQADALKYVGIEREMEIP
Sequence of EED (Homo sapiens) (O75530 2-441): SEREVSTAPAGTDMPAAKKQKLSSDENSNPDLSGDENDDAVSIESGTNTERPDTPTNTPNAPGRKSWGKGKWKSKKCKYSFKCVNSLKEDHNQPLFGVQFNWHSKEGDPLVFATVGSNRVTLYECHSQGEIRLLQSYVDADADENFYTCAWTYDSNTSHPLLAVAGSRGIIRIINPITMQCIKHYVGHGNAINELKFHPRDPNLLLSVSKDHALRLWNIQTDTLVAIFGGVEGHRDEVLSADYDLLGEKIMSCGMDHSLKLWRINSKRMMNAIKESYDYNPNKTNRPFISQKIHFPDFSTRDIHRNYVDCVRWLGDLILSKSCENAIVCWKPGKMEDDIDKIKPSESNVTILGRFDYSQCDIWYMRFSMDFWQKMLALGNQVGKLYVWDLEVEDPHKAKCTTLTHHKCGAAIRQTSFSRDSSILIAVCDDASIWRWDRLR

In the case of “EZH2 peptide aptamer (from UniProt Q15910)”, the Kd (EED (Homo sapiens)) is given as 380 nM.
In the case of “p53 peptide aptamer (from UniProt P04637)”, the Kd (MDM2 (Homo sapiens)) is given as 140 nM.
